The source of these data is patent US20210403578A1 (Stanford University, published 2021).

The test concerns the target T1, Fz8-CRD (UniProt Q9H461 32-151, limits assumed, fluorescence-conjugated).
T1 construct: domain: CRD; also called Fzd8-CRD; frizzled (Fz8-CRD)
T1 sequence (looked up): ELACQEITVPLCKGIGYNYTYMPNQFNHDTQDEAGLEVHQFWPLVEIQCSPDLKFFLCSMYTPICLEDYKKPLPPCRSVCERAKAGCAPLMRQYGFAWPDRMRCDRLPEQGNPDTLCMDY
Put plainly: yeast surface display with fluorescence-conjugated Fz8-CRD. The text has this: Fz27 was expressed in a construct enabling binding to be confirmed via yeast surface display using fluorescence-conjugated Fz8-CRD.

B1: uncharacterized protein Bh1478 from Bacillus halodurans (other)
chain: MDVQRVGKAGLHRVDSKKQQTAAGVSFSEVMGKQRDEKAYERLQALMSKIDDQGKLLSETRTIEELRKYKELVKEFVGDAVELGLRLEERRGFNRRGRTKIYKIVKEVDRKLLDLTDAVLAKEKKGLDILNMVGEIKGLLINIYA
notes: also called 2QUP; wild-type scaffold
B1: the binding result is listed as “no binding”.
